B1: TPR t1 (parent)
chain: GACCAAUCUGCCCUCAGAGCUCGAGAACAUCUUCGGAUGCAGAGGAGGCAGGCUUCGGUGGCGCGAUAGCGCCAACGUCCUCAACCUCCAAUGCAUCCCACCACAUGAUGAUGCCUGAAGAGCCUUGGUUUUUUG

Variants of: B1
Assay: polymerase ribozyme fitness, log enrichment relative to wild type (log ratio); higher = more active; in vitro selection for triplet polymerase activity
In short: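 Both subunits of a heterodimeric triplet polymerase ribozyme were given their own mutant library, built by PCR and transcribed. Each library was annealed with a biotinylated primer, the partner subunit and triplets, incubated frozen at −7 °C, and its extended constructs gel-excised, captured on streptavidin beads and amplified by RT-PCR, all in one round done in triplicate. Fitness is the logarithm of genotype enrichment relative to wild-type enrichment, with replicates averaged by inverse-variance weighting. That logarithm is base 2, and Illumina-sequenced genotypes needed ≥10 input reads and ≥1 read per output.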

| Variant | polymerase ribozyme fitness (log ratio) |
| --- | --- |
| U33A G44C G57U A121G | -4.61 |
| C40G A100U U133G | -4.07 |
| A5G C49A C115U U132A | -0.466 |
| C31U G61A C123G | -3.22 |
| C49U G77C C124G U125C | -0.664 |
| A6C G93U A100U | -2.54 |
| C11A G93U | -1.93 |
| U33A C72A U78C U87A | -5.41 |
| C13A U32C C49U G61A G77C U92C | -3.43 |
| C11G C94U C104G G113A | -5.51 |
| G60C A68G | -4.8 |
| C22A C56A | -3.44 |
| G35U U78A | -5.42 |
| C20U A50U A83C | -5.22 |
| C56A G63A | -2.26 |
| A27G A41G G71A | -2.99 |
| C70A A111U A121U | -5.08 |
| A37U A74G A90C | -2.26 |
| C40U C62G G110U | -4.6 |
| G47A A50U G61U | -0.935 |
| C49A U55G U125A G127A | -1.79 |
| C12A C49U U109A U116A C123G | -6.73 |
| C12U G42A G128C U131G | -4.81 |
| C12A C49U C70G | -4.56 |

| Variant | polymerase ribozyme fitness (log ratio) |
| --- | --- |
| U38G G51C | -6.44 |
| C13G A41U | -3.04 |
| A27G A29G G45A C56G C73A A75G C104A G107A G117U | -6.73 |
| C49G G120A | 0.175 |
| G51C U130A | -3.62 |
| U21A C89U G110A U112C | -2.24 |
| A50G C53G G61A C64U U116A G117A | -4.58 |
| G48A G51A G71A C79A A84U G128A U129G | -6.49 |
| C70U A95C U109A | -7.47 |
| C20G C40U G42U C56A | -4.45 |
| C8U C40G G61A G120A | 1.65 |
| G10U U112G C123G | 0.673 |
| A2U U7G C22A U33G C72U G120C | -7 |
| C62G A111C | -1.87 |
| C3G C70U | -2.07 |
| C3G G42U C99U C115G A121G | -5.96 |
| A29G G58C G120U | -1.73 |
| C72U U78C U81A A83G | -1.17 |
| C11A G36U G48C C62G C115A G120C | -4.4 |
| G25U C104U | -5.92 |
| U129C U131G | 0.298 |
| U55C A90G C94G G110C U116A A121G | -5.82 |
| G51C C53A | -4.19 |
| A2U A27G G61A C104A U112C G122U | -2.93 |

| Variant | polymerase ribozyme fitness (log ratio) |
| --- | --- |
| A18U U112A | -1.42 |
| C49G C62A | -1.32 |
| C56G G117A | -2.32 |
| C11G G44A U125G | -0.96 |
| A27C G42U C104A C114A G128A | -7.58 |
| G44U C72G C85A | -2.52 |
| A5C G60U | -1.18 |
| A5C G17A A41G C53A C56A C70U G71A U112C | -6.41 |
| A6G G39U G69U A119U | -0.0303 |
| C11G A108C | -4.07 |
| C101A C102A A119U U130A | -5.43 |
| U9A C13G G61U C123G | 1.99 |
| C12G G48C A91C | -2.22 |
| U106A C114A | -1.93 |
| U9G G113C | -1.34 |
| G71C C79U | 0.303 |
| G60A U131A | 0.546 |
| C34U G47C A66C G71A G110C U129C | -6.98 |
| A16U G61C G117C C124G | -4.49 |
| C20A C82U U87G C102A | -4.69 |
| C13U U21C A27C U87G C114G | -6.59 |
| C3U C11U G42C C56A A74C A105U G120C | -6.23 |
| U55G C104U G113C C123A | -3.72 |
| A6G U9A C34U | -3.96 |

| Variant | polymerase ribozyme fitness (log ratio) |
| --- | --- |
| C31U A68U C114A G117C C124A | -5.73 |
| C11U C22G A83C | -4.06 |
| C20U G110C | -4.31 |
| G47U G63A | -2.11 |
| C8U G36C G63U | -1.95 |
| G113A G117A | -4.4 |
| G107A C114U | -3.83 |
| U38G G58U G63C G113C G135C | -4.03 |
| G52C G71U | -0.867 |
| C64U G113C | -0.91 |
| A66U G71A | -2.53 |
| C102U C124A | -0.401 |
| G63U C72U C82G G113C | -4.22 |
| G10C G57A C88U U112G | -3.48 |
| C40G C86G | -2.86 |
| A103U A119G | -4.5 |
| G110C G120C | -4.2 |
| C80U U81A C89U U126G | -3.21 |
| C13U U14G A68G | -5.25 |
| G63A U92A | -4.6 |
| C79U C114A G120C G127U | -1.06 |
| C89U U112A | -0.432 |
| C72A A91G U92G G113C | -2.41 |
| C76A C85G | -1.03 |

| Variant | polymerase ribozyme fitness (log ratio) |
| --- | --- |
| C11U C15A A29C C34A G71U C79U C104A G117U | -6.92 |
| C3G C40G A121G U130G | 0.237 |
| U21C C88G A121U | -0.0258 |
| C56U G60A C101U | -5.48 |
| G71A C79U C123U | 1.66 |
| A5U C22U A50U U54G | -6.42 |
| C22U G77A | -4.04 |
| C4A A18G G71U C89A A100C G113A C124U | -4.08 |
| C12G C28U G71U C124U | -0.951 |
| C89A U96A C115A | -2.16 |
| A43U U106A A108U U112A | -2.46 |
| C53A C98A | -5.56 |
| C34A U59C U112G | -4.39 |
| U7C C101A | -0.57 |
| C8G C49A U54C G122U | 0.439 |
| C3G U59G C88U C115A | -2.65 |
| A50U U87G G113U | -4.19 |
| U7C C8G C64G C85A U112G | -6.03 |
| C12U C79A U106C | -1.41 |
| G10A G17A C82A | -3.46 |
| C40G G135U | -1.71 |
| G60U G110C C123U | -5.58 |
| U7C C12G G44A U92A C102A C123U | -7.32 |
| A37U G113A C123U | -2.5 |

| Variant | polymerase ribozyme fitness (log ratio) |
| --- | --- |
| C8A G36A G57A G61A C72G | -1.48 |
| C89A U112A A121U U131C | 0.436 |
| C34G G63U C70U | -6.08 |
| C64U C85A U96G U125A | -2.82 |
| G42U U78A U81A U112A | -3.13 |
| A50U U54C U106A G117A | -1.12 |
| C20U U78C | -1.11 |
| A29G G69A C86A U112A C123G | -3.48 |
| C11A C13G C31U A46U U109G | -7.98 |
| U7C U14A U32A C53G G63C G120A | -4.32 |
| C53G U116A | -2.67 |
| C3U C40G G47A C62U A84G | -3.81 |
| C15A G122A | -1.85 |
| C15A A46U G77U | -2.81 |
| G60U C97A C123U | -2.62 |
| A18C U87C | -2.11 |
| A37G G61A | -0.324 |
| C8G G47A C97A G120U | -2.93 |
| U21G G39A | -1.39 |
| C20A U96A | -4.02 |
| A27U A41U | -4.42 |
| C28G C73G C104A A111C | -4.53 |
| C99G C124U | -6.43 |
| A66G U78C U87G | -0.388 |

| Variant | polymerase ribozyme fitness (log ratio) |
| --- | --- |
| A18G C114U | -3.96 |
| A5G G48C | -1.69 |
| G35U G113C G120A G135C | -5.82 |
| U7A U109G | -2.9 |
| A5U A84U C97U | -1.7 |
| G10U C115G | -1.99 |
| U7G C40U G69C C99U | -4.48 |
| C28U C101U G120U | -3.5 |
| A27U A37C U59C | -3.36 |
| U32G C56G | -6.87 |
| G17A G23A C64A C102G U109A | -6.59 |
| C28G G57C A84U C94U A118U | -2.35 |
| A6U C85G | -1.65 |
| C62U U87C C88G C114A | -3.36 |
| C3A C12U A29G U87C G110A A118U U131G | -0.49 |
| U116A C123U | -1.63 |
| G52U U129A | -1.63 |
| G77C A95C G113A | -2.42 |
| C8A G135U | -0.432 |
| A16U A26U | -4.8 |
| A5C U9A C40U G63U G135U | -2.96 |
| A68G U81A | -4.45 |
| A103U | -4.71 |

Source: the RNAGym collection of RNA variant scans (doi:10.1073/pnas.2313332121)
